B1: rabbit antibody Mab 086 (VH00/VL00) (antibody, V domains shown)
VH: QSVEESGGRLVTPGTPLTLTCTVSGFSLSSNAINWVRQAPGKGLEWIGYIAVSGNTYYASWAKGRFTISKASTTVDLKMTSPTAEDTGTYFCGKSNIWGPGTLVTVSL
VL: AQVLTQTTSPVSAAVGSTVTISCQSSQSVRTNKLAWFQQKPGQPPKRLIYSASTLDFGVPSRFSASGSGTQFTLTISDVQCDDAATYYCLGYFDCSIADCVAFGGGTEVVVK
B2: VH32/VL21 (antibody, V domains shown)
VH: EVQVLESGGGLVQPGGSLRLSCAVSGFSLSSNAINWVRQAPGKGLEWVGYIAVSGNTYYASWAKGRFTISRDNSKNTVYLQMNSLRAEDTAVYYCGKSNIWGQGTLVTVSS
VL: AQVMTQSPSSLSASVGDRVTITCRSSQSVRTNKLAWFQQKPGQPPKRLIYSASTLDFGVPSRFSGSGSGTEFTLTISSLQPEDFATYYCLGYFDSSADIVAFGGGTKVEIK

Assays:
[1] = molecular target: human Tau(pS422) fragment (residues 416 to 430 with phosphorylated serine 422) (human); assay: ELISA, biotinylated peptide on streptavidin plate
[2] = molecular target: human Tau(pS422) fragment (residues 416 to 430 with phosphorylated serine 422) (human); assay: ELISA, coated antigen
[3] = molecular target: human Tau(pS422) fragment (residues 416 to 430 with phosphorylated serine 422) (human); assay: ELISA, ratio of EC50 values

| Binder | EC50 [1] | EC50 [2] | selectivity over non-phosphorylated Tau peptide [3] |
| --- | --- | --- | --- |
| B1 | 1.1 ng/mL | 6.3 ng/mL | > 100 fold |
| B2 |  | 4.4 ng/mL |  |
